The target of data set [1] is heteromeric acetyl-coenzyme A carboxylase (hetACCase) of Arabidopsis thaliana, in silique or leaf extracts (Arabidopsis thaliana) (UniProt O04983). Put plainly: inhibition of ACCase activity in 20-day-old A. thaliana leaf extracts with increasing recombinant BADC1, polynomial fit.
Data set [2] addresses alpha-carboxyltransferase (α-CT) subunit of hetACCase, AT2G38040, Arabidopsis thaliana (Arabidopsis thaliana) (UniProt Q9LD43). Put plainly: co-IP from A. thaliana chloroplast lysate with anti-α-CT polyclonal antibody, LC-MS/MS.
Data set [3] concerns the molecule itself. Put plainly: intact mass analysis and non-reducing SDS-PAGE of purified recombinant protein (only a monomer band).
In data set [4] the target is T1, beta-carboxyltransferase (β-CT) subunit of hetACCase, ATCG00500, Arabidopsis thaliana (Arabidopsis thaliana, UniProt P56765 1-488).
T1 construct: Native protein in chloroplast lysate
T1 sequence (looked up): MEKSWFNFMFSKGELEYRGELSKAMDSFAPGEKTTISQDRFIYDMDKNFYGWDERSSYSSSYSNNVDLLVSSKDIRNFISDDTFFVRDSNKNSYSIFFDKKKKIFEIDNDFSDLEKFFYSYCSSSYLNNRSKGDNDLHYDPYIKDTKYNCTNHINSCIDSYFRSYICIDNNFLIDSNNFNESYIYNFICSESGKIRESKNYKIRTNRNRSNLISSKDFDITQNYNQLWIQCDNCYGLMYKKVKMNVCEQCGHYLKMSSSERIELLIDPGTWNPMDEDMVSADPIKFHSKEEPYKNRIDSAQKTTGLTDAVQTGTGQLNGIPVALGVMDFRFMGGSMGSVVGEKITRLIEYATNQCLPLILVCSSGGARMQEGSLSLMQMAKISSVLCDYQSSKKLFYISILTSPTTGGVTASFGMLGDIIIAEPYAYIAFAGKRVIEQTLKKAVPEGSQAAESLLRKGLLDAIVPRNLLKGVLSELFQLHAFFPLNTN
The data set is described as follows: co-IP from A. thaliana chloroplast lysate with anti-BCCP2 polyclonal antibody, LC-MS/MS.
Procedure: For co-innmunoprecipitation of hetACCase from Arabidopsis seedlings, crude chloroplasts were isolated from approximately 10 g 14-d-old A. thaliana seedlings after 1 h light exposure. Fresh leaves were homogenized in ice-cold grinding buffer (50 mM HEPES-KOH pH 8.0, 330 mM sorbitol, 1.5 mM MnCl₂, 2 mM MgCl₂, 2 mM EDTA, 0.1% (w/v) BSA) using a Waring blender. Homogenate was filtered through two layers of Miracloth and centrifuged at 2,600 g at 4° C. for 20 min. Chloroplasts were lysed for 30 min in ice-cold lysis buffer (50 mM HEPES-KOH pH 8.0, 10% (v/v) glycerol, 0.5% (v/v) Triton X-100). Lysates were homogenized ten times in a Dounce homogenizer on ice and then centrifuged at 30 k g for 20 min at 4° C. Then, 1 mL of the 30 k g supernatant was added to 25 μL Protein A-Sepharose beads (Sigma Aldrich) either uncoated (control) or coated with antibody specific for α-CT, BCCP, BADC1, or BADC2. Co-immunoprecipations (co-IP) were carried out at 4° C. for 3 h with gentle mixing. The heads were washed twice with 1 mL ice-cold lysis buffer and precipitated protein was eluted by adding 30 μL 6×SDS sample buffer (350 mM Tris-HCl, pH 6.8, 350 mM SDS, 30% (v/v) glycerol, 100 mM dithiothreitol, 2.5 mM bromophenol blue) and heating at 65° C. for 10 min. Eluted proteins were resolved on 10% SDS-PAGE gels for western and mass spectrometry analysis. […]

alpha-carboxyltransferase (α-CT) subunit of hetACCase, AT2G38040, Arabidopsis thaliana (Arabidopsis thaliana), sequence (Q9LD43 55-769): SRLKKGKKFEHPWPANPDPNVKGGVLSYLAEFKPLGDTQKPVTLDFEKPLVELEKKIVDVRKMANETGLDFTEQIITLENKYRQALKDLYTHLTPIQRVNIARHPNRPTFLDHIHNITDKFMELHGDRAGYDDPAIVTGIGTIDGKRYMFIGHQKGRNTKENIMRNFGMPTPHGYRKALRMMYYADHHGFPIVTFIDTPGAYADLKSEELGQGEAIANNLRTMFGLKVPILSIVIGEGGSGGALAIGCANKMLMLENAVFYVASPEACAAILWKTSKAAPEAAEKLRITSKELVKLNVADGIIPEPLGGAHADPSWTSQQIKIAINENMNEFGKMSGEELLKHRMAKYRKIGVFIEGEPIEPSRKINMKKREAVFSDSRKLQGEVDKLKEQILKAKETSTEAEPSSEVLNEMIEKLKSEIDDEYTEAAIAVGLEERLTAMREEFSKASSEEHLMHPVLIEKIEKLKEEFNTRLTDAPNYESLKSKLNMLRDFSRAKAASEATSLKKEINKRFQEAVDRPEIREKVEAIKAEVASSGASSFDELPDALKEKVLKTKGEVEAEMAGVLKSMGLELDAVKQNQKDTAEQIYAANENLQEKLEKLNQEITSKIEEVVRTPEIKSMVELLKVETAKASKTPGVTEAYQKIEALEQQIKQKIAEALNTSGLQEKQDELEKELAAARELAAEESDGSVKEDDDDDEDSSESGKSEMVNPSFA

B1: BADC1 (biotin/lipoyl attachment domain-containing protein, AT3G56130), Arabidopsis thaliana (protein)
chain: AKAAKSSTTTISDGSSDASVSDGKKTVRRITFPKEVEALVHEMCDETEVAVLQLKVGDFEMNLKRKIGAATNPIPVADISPTVAPPIPSEPMNKSASSAPSPSQAKPSSEKVSPFKNTSYGKPAKLAALEASGSTNYVLVTSPAVGKFQRSRTVKGKKQSPSCKEGDAIKEGQVIGYLHQLGTELPVTSDVAGEVLKLLSDDGDSVGYGDPLVAVLPSFHDINIQ
In the case of B1, the Ki in data set [1] stood at 4.3 µM. The molecule further displayed a replicates of the co-IP in which the protein was present (of seven) in data set [2] of 1 replicates.

B2: BADC2 (Single hybrid motif protein, AT1G52670), Arabidopsis thaliana (other)
chain: TTLRSVKAIQLSTVPPAETEAIADVKDSDETKSTVVNTHLMPKSSEVEALISEITDSSSIAEFELKLGGFRLYVARKLTDESSPPPQQIQPVVAASATPEGVHTNGSATSSSLAITKTSSSSADRPQTLANKAADQGLVILQSPTVGYFRRSKTIKGKRTPTICKEKDIVKEGQVLCYIEQLGGQIPVESDVSGEIVKILREDGEPVGYNDALITVLPSFPGIKKLQ
notes: Native protein in chloroplast lysate for the co-IPs; Recombinant and two-hybrid constructs lack the TargetP-predicted transit peptide; His-tagged or untagged in co-expression; also called AtBADC2; NP_564612.1
With B2, the replicates of the co-IP in which the protein was present (of seven) in data set [2] came to 2 replicates. Further, in data set [3], the binding result was “no binding”.

B3: BCCP2 (biotin carboxyl carrier protein 2 subunit of hetACCase, AT5G15530), Arabidopsis thaliana (other, UniProt Q9LLC1 88-255, looked up)
chain: EFMAKVSGLLKLVDSKDIVELELKQLDCEIVIRKKEALQQAVPPAPVYHSMPPVMADFSMPPAQPVALPPSPTPTSTPATAKPTSAPSSSHPPLKSPMAGTFYRSPGPGEPPFVKVGDKVQKGQIVCIIEAMKLMNEIEAEKSGTIMELLAEDGKPVSVDTPLFVIAP
modifications: biotinylated (residue not given)
notes: Native protein in chloroplast lysate for the co-IPs; Recombinant and two-hybrid constructs lack the TargetP-predicted transit peptide; also called AtBCCP2; NP_568316.1
Take B3: the binding result in data set [4] is “no binding”.

The values are drawn from patent publication US20210171970A1 (CURATORS OF THE UNIVERSITY OF MISSOURI, published 2021).
